Measured values: publication PMC5790919, “UDP-Glucuronic Acid Transport Is Required for Virulence of Cryptococcus neoformans” (mBio, 2018)

Test system: O=C(O)[C@H]1O[C@H](OP(=O)(O)OP(=O)(O)OC[C@H]2O[C@@H](n3ccc(=O)[nH]c3=O)[C@H](O)[C@@H]2O)[C@H](O)[C@@H](O)[C@@H]1O
Assay: cells, lysate or membranes
Details: proteoliposomes preloaded with 10 mM UMP (antiport), 2 min uptake; transport; kcat printed as turnover rate

Uut1 (Cryptococcus neoformans H99)
Km: 0.6 ± 0.1 µM | kcat: 0.08 s⁻¹
